The values below come from patent US20260345809 (published 2026).

The target in assay [1] is T1, GPC3 (human, UniProt P51654). The assay can be described thus: FACS, Huh-7 cells.
The target of assay [2] is T1, GPC3. The assay can be described thus: FACS, HepG2 cells.
Assay [3] addresses T1, GPC3. The assay can be described thus: FACS, GPC3-CHO-K1 cells.
In assay [4] the target is T1, GPC3. Nature of the assay: FACS, HepG2 cells. This is another data set of the same source.

B1: Y035 (antibody, V domains shown)
VH: EVQLVQSGAEVKKPGASVKVSCKASGYTHSDYEMHWVRQAPGQGLEWMGAIHPGSGDTAYNQRFKGRVTITADKSTSTAYMELSSLRSEDTAVYYCARFYSYAYWGQGTLVTVSA
VL: DIVMTQTPLSLPVTPGEPASISCRSSQSLVHSNGNTYLQWYLQWYLQKPGQSPQLLIYKVSNRFSGVPDRFSGSGSGTDFTLKISRVEAEDVGVYYCSQSIYVPYTFGQGTKLEIKR
In the case of B1, the figures for the EC50 in assay [1], in assay [2] and in assay [3] were 1.18 nM, 1.25 nM and 1.46 nM, respectively.

B2: GC33 (antibody, V domains shown)
VH: QVQLVQSGAEVKKPGASVKVSCKASGYTFTDYEMHWVRQAPGQGLEWMGALDPKTGDTAYSQKFKGRVTLTADKSTSTAYMELSSLTSEDTAVYYCTRFYSYTYWGQGTLVTVSS
VL: DVVMTQSPLSLPVTPGEPASISCRSSQSLVHSNRNTYLHWYLQKPGQSPQLLIYKVSNRFSGVPDRFSGSGSGTDFTLKISRVEAEDVGVYYCSQNTHVPPTFGQGTKLEIKR
For B2, the EC50 in assay [4] was 0.269 µg/mL; in assay [1], 0.953 nM; in assay [2] it was 0.745 nM; in assay [3], 0.956 nM.

B3: GC33-L4-D4 (antibody, V domains shown)
VH: QVQLVQSGAEVKKPGASVKVSCKASGYTFTDYEMHWVRQAPGQGLEWMGALDPKTGDTAYSQKFKGRVTLTADKSTSTAYMELSSLTSEDTAVYYCTRFYSYTYWGQGTLVTVSS
VL: DVVMTQSPLSLPVTPGEPASISCRSSQSLVHSNRNTYLHWYLQKPGQSPQLLIYKVSNRFSGVPDRFSGSGSGTDFTLKISRVEAEDVGVYYCSQNTHVPPTFGQGTKLEIKR
modifications: ADC, MC-MMAF conjugate of GC33
In assay [4], B3 came in with an EC50 of 0.112 µg/mL.

B4: GC33-ZLA (antibody, V domains shown)
VH: QVQLVQSGAEVKKPGASVKVSCKASGYTFTDYEMHWVRQAPGQGLEWMGALDPKTGDTAYSQKFKGRVTLTADKSTSTAYMELSSLTSEDTAVYYCTRFYSYTYWGQGTLVTVSS
VL: DVVMTQSPLSLPVTPGEPASISCRSSQSLVHSNRNTYLHWYLQKPGQSPQLLIYKVSNRFSGVPDRFSGSGSGTDFTLKISRVEAEDVGVYYCSQNTHVPPTFGQGTKLEIKR
modifications: ADC, ZLA conjugate of GC33
As for B4, it took 0.143 µg/mL to reach a half-maximal effect in assay [4] (EC50).
